Laboratory results from publication PMC4323031 (Malaria Journal, 2015).

Target: T1, mE-ERH, fusion protein comprising the EGF-like domains of MSP1-19, MSP8 and MSP4 (Plasmodium falciparum, 3D7 assumed from …, UniProt Q7KWJ2)
T1 construct: source: Nicotiana benthamiana leaves (agroinfiltration, ER-retained), purified
Assay: SPR
Details: both partners purified

B1: recombinant 2.44IgG1 (chimeric mouse-human IgG1:kappa1 mAb) (antibody, V domains shown)
VH: DVQLQESGPGLVKPSQSLSLTCTVTGYSITSDFAWNWIRQFPGNRLEWMGYMGYTGSTSYNPSLRGRISITRDTSKNQFFLQLNSVTTEDTATYYCARGDYYGSRGYFDVWGAGTTVTVSS
VL: EIVLTQSPALMAASPGEKVTITCSVSSSIRSSNLHWYQQKSDTSPKPWIYGTSNLASGVPVRFSGSGSGTSYSLTISTMEAEDAATYYCQQWSSYPFTFGSGTKLEIK
notes: also called recombinant mAb; recombinant antibody
Kd: 10.2 nM
koff: 0.000926 s⁻¹
kon: 90400 M⁻¹ s⁻¹
